Reference: patent US20090192084A1

Key:
[1] = target: T1, endogenous UFD1 (human) (UniProt Q92890); assay: Flag co-IP, 293 cells, MudPIT MS
T1 sequence (looked up): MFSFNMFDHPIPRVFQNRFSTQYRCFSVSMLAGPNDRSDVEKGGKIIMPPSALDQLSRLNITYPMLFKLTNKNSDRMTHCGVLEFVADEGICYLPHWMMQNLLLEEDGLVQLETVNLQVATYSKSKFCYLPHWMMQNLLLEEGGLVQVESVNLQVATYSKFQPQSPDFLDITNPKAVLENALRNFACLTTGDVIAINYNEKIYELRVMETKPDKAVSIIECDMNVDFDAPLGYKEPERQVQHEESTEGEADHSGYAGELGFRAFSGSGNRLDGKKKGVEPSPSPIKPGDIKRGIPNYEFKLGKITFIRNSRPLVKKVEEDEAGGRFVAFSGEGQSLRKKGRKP

[2] = target: endogenous p97 (human) (UniProt P55072); assay: Flag co-IP, 293 cells, MudPIT MS
endogenous p97 (human), sequence (P55072 2-806 limits assumed): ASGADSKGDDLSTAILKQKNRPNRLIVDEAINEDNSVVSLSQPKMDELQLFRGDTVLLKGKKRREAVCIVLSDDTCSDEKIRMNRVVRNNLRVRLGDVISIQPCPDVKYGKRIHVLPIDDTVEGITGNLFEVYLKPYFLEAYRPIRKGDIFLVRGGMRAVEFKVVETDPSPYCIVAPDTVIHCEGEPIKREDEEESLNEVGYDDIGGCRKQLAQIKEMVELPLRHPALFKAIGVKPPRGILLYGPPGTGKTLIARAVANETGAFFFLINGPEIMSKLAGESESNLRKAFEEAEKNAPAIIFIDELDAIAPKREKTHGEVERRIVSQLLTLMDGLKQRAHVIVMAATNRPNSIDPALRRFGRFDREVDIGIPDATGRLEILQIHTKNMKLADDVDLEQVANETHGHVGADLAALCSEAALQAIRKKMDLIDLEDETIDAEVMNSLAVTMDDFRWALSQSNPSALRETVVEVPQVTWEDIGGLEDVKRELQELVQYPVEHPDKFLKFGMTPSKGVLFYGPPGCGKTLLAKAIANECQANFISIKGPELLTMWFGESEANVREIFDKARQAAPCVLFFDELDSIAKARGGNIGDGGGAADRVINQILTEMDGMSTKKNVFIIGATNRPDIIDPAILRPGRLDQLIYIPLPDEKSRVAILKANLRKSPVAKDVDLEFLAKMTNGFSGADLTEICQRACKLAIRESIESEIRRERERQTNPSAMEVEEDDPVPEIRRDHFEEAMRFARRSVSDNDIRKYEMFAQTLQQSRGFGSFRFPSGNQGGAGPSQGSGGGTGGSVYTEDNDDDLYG

[3] = target: T2, VCIP135 (human) (UniProt Q96JH7); assay: Flag co-IP, 293 cells, MudPIT MS
T2 sequence (looked up): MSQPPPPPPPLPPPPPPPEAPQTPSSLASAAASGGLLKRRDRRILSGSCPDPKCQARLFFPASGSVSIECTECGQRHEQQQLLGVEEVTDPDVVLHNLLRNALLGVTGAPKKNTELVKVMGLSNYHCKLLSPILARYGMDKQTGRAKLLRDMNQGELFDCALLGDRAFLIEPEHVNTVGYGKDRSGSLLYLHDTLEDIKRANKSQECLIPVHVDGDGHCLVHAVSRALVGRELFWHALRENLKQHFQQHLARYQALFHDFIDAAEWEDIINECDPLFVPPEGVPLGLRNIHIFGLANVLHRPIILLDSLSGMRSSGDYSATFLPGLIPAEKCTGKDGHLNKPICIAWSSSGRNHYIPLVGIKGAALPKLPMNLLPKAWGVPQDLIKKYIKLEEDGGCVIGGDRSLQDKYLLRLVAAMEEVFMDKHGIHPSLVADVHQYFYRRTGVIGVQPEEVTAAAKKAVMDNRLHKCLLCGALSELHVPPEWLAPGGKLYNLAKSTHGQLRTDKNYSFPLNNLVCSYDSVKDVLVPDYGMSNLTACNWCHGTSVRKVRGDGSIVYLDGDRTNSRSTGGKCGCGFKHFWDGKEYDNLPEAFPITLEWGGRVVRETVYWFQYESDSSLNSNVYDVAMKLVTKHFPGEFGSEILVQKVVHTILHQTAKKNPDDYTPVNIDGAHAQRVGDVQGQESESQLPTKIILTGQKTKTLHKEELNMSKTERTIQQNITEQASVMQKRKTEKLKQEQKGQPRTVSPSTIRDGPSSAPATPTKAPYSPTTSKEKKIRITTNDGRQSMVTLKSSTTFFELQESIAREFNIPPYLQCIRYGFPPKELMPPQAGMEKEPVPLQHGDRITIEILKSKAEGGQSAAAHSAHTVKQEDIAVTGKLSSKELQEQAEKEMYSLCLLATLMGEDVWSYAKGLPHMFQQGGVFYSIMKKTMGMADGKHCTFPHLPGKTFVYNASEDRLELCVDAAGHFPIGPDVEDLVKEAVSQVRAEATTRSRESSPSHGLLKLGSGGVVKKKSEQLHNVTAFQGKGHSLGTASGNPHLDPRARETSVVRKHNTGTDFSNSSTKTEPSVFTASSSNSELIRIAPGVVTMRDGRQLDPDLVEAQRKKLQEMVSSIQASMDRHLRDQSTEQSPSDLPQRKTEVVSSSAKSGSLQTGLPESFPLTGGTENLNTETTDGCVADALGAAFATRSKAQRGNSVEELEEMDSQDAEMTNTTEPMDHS

[4] = target: Cullin 2 (human) (UniProt Q13617); assay: Flag co-IP, MudPIT MS, DMSO
Cullin 2 (human), sequence (Q13617 whole entry): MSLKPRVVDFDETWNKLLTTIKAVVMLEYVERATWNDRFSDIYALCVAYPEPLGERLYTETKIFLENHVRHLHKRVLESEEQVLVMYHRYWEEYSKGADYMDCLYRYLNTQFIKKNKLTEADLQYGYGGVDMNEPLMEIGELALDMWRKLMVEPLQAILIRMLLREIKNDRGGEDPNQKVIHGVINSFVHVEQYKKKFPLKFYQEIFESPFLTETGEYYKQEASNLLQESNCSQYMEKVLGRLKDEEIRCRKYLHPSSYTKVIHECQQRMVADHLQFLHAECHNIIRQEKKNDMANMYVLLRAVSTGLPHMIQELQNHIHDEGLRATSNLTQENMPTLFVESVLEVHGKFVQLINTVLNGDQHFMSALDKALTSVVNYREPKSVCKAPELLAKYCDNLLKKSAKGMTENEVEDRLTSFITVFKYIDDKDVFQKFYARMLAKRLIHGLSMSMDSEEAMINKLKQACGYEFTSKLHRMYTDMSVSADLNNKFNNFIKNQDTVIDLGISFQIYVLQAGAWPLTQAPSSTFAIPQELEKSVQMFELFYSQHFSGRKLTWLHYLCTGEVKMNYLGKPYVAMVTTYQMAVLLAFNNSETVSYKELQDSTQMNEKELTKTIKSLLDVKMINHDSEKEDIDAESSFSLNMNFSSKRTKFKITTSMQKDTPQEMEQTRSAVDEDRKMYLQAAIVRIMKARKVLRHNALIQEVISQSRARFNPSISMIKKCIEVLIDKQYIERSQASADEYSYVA

[5] = target: Cullin 2 (human) (UniProt Q13617); assay: Flag co-IP, MudPIT MS, MG132
[6] = target: p97-Myc; assay: p97-Myc co-IP, 293 cells, MudPIT MS
p97-Myc, sequence (Q01853 2-806): as the sequence (P55072 2-806 limits assumed) above

B1: Flag-NPL4 (protein, UniProt Q8TAT6 2-608, looked up, species assumed)
Nuclear protein localization protein 4 homolog: AESIIIRVQSPDGVKRITATKRETAATFLKKVAKEFGFQNNGFSVYINRNKTGEITASSNKSLNLLKIKHGDLLFLFPSSLAGPSSEMETSVPPGFKVFGAPNVVEDEIDQYLSKQDGKIYRSRDPQLCRHGPLGKCVHCVPLEPFDEDYLNHLEPPVKHMSFHAYIRKLTGGADKGKFVALENISCKIKSGCEGHLPWPNGICTKCQPSAITLNRQKYRHVDNIMFENHTVADRFLDFWRKTGNQHFGYLYGRYTEHKDIPLGIRAEVAAIYEPPQIGTQNSLELLEDPKAEVVDEIAAKLGLRKVGWIFTDLVSEDTRKGTVRYSRNKDTYFLSSEECITAGDFQNKHPNMCRLSPDGHFGSKFVTAVATGGPDNQVHFEGYQVSNQCMALVRDECLLPCKDAPELGYAKESSSEQYVPDVFYKDVDKFGNEITQLARPLPVEYLIIDITTTFPKDPVYTFSISQNPFPIENRDVLGETQDFHSLATYLSQNTSSVFLDTISDFHLLLFLVTNEVMPLQDSISLLLEAVRTRNEELAQTWKRSEQWATIEQLCSTVGGQLPGLHEYGAVGGSTHTATAAMWACQHCTFMNQPGTGHCEMCSLPRT
modifications: N-terminal Flag tag
B1 was tested, and the sequence count [1] was 14, the sequence coverage [1] was 37.9% and the spectrum count [1] was 22. For the same binder, the sequence count [2] was 79, the sequence coverage [2] was 70.4% and the spectrum count [2] was 414. For the same binder, the sequence count [3] was 2, the sequence coverage [3] was 2.5% and the spectrum count [3] was 2.

B2: Flag-UBXD8 (protein, UniProt Q96CS3 1-445, looked up, not shown: small tags and cut ends)
chain: MAAPEERDLTQEQTEKLLQFQDLTGIESMDQCRHTLEQHNWNIEAAVQDRLNEQEGVPSVFNPPPSRPLQVNTADHRIYSYVVSRPQPRGLLGWGYYLIMLPFRFTYYTILDIFRFALRFIRPDPRSRVTDPVGDIVSFMHSFEEKYGRAHPVFYQGTYSQALNDAKRELRFLLVYLHGDDHQDSDEFCRNTLCAPEVISLINTRMLFWACSTNKPEGYRVSQALRENTYPFLAMIMLKDRRMTVVGRLEGLIQPDDLINQLTFIMDANQTYLVSERLEREERNQTQVLRQQQDEAYLASLRADQEKERKKREERERKRRKEEEVQQQKLAEERRRQNLQEEKERKLECLPPEPSPDDPESVKIIFKLPNDSRVERRFHFSQSLTVIHDFLFSLKESPEKFQIEANFPRRVLPCIPSEEWPNPPTLQEAGLSHTEVLFVQDLTDE
Work on B2 yielded an abundance factor (AF) [4] of 2.4, a sequence count [4] of 4 and a spectrum count [4] of 12. It also gave an abundance factor (AF) [5] of 10.3, a sequence count [5] of 8 and a spectrum count [5] of 38.

B3: endogenous p47 (protein, human, UniProt Q9UNZ2 1-370, looked up)
chain: MAAERQEALREFVAVTGAEEDRARFFLESAGWDLQIALASFYEDGGDEDIVTISQATPSSVSRGTAPSDNRVTSFRDLIHDQDEDEEEEEGQRFYAGGSERSGQQIVGPPRKKSPNELVDDLFKGAKEHGAVAVERVTKSPGETSKPRPFAGGGYRLGAAPEEESAYVAGEKRQHSSQDVHVVLKLWKSGFSLDNGELRSYQDPSNAQFLESIRRGEVPAELRRLAHGGQVNLDMEDHRDEDFVKPKGAFKAFTGEGQKLGSTAPQVLSTSSPAQQAENEAKASSSILIDESEPTTNIQIRLADGGRLVQKFNHSHRISDIRLFIVDARPAMAATSFILMTTFPNKELADESQTLKEANLLNAVIVQRLT
In the case of B3, the sequence count [6] is reported as 19, the sequence coverage [6] is reported as 52.2% and the spectrum count [6] is reported as 153.

B4: endogenous p37 (protein, human, UniProt Q14CS0 2-331, looked up)
chain: AEGGGPEPGEQERRSSGPRPPSARDLQLALAELYEDEVKCKSSKSNRPKATVFKSPRTPPQRFYSSEHEYSGLNIVRPSTGKIVNELFKEAREHGAVPLNEATRASGDDKSKSFTGGGYRLGSSFCKRSEYIYGENQLQDVQILLKLWSNGFSLDDGELRPYNEPTNAQFLESVKRGEIPLELQRLVHGGQVNLDMEDHQDQEYIKPRLRFKAFSGEGQKLGSLTPEIVSTPSSPEEEDKSILNAVVLIDDSVPTTKIQIRLADGSRLIQRFNSTHRILDVRNFIVQSRPEFAALDFILVTSFPNKELTDESLTLLEADILNTVLLQQLK
Binder B4 has a sequence count [6] of 6, a sequence coverage [6] of 32.3% and a spectrum count [6] of 7.

B5: endogenous UBXD8 (protein, human, UniProt Q96CS3 2-445, looked up)
chain: AAPEERDLTQEQTEKLLQFQDLTGIESMDQCRHTLEQHNWNIEAAVQDRLNEQEGVPSVFNPPPSRPLQVNTADHRIYSYVVSRPQPRGLLGWGYYLIMLPFRFTYYTILDIFRFALRFIRPDPRSRVTDPVGDIVSFMHSFEEKYGRAHPVFYQGTYSQALNDAKRELRFLLVYLHGDDHQDSDEFCRNTLCAPEVISLINTRMLFWACSTNKPEGYRVSQALRENTYPFLAMIMLKDRRMTVVGRLEGLIQPDDLINQLTFIMDANQTYLVSERLEREERNQTQVLRQQQDEAYLASLRADQEKERKKREERERKRRKEEEVQQQKLAEERRRQNLQEEKERKLECLPPEPSPDDPESVKIIFKLPNDSRVERRFHFSQSLTVIHDFLFSLKESPEKFQIEANFPRRVLPCIPSEEWPNPPTLQEAGLSHTEVLFVQDLTDE
With B5 the sequence count [6] was 11, the sequence coverage [6] was 33.7% and the spectrum count [6] was 12.

B6: endogenous UBXD4 (protein, human, UniProt P68543 1-259, looked up)
chain: MKDVDNLKSIKEEWVCETGSDNQPLGNNQQSNCEYFVDSLFEEAQKVSSKCVSPAEQKKQVDVNIKLWKNGFTVNDDFRSYSDGASQQFLNSIKKGELPSELQGIFDKEEVDVKVEDKKNEICLSTKPVFQPFSGQGHRLGSATPKIVSKAKNIEVENKNNLSAVPLNNLEPITNIQIWLANGKRIVQKFNITHRVSHIKDFIEKYQGSQRSPPFSLATALPVLRLLDETLTLEEADLQNAVIIQRLQKTASFRELSEH
With B6 the sequence count [6] was 4, the sequence coverage [6] was 19.3% and the spectrum count [6] was 5.

B7: Flag-SAKS1 (protein, UniProt Q04323 1-297, looked up, not shown: small tags and cut ends)
chain: MAELTALESLIEMGFPRGRAEKALALTGNQGIEAAMDWLMEHEDDPDVDEPLETPLGHILGREPTSSEQGGLEGSGSAAGEGKPALSEEERQEQTKRMLELVAQKQREREEREEREALERERQRRRQGQELSAARQRLQEDEMRRAAEERRREKAEELAARQRVREKIERDKAERAKKYGGSVGSQPPPVAPEPGPVPSSPSQEPPTKREYDQCRIQVRLPDGTSLTQTFRAREQLAAVRLYVELHRGEELGGGQDPVQLLSGFPRRAFSEADMERPLQELGLVPSAVLIVAKKCPS
Binder B7 has an abundance factor (AF) [4] of 3.7, a sequence count [4] of 3 and a spectrum count [4] of 4. The abundance factor (AF) [5] was 5.5, the sequence count [5] was 4 and the spectrum count [5] was 11.

B8: Flag-p47 (protein, UniProt O35987 1-370, looked up, not shown: small tags and cut ends)
chain: MAEERQDALREFVAVTGAEEDRARFFLESAGWDLQIALASFYEDGGDEDIVTISQATPSSVSRGTAPSDNRVTSFRDLIHDQDEEEEEEEGQRFYAGGSERSGQQIVGPPRKKSPNELVDDLFKGAKEHGAVAVERVTKSPGETSKPRPFAGGGYRLGAAPEEESAYVAGERRRHSGQDVHVVLKLWKTGFSLDNGDLRSYQDPSNAQFLESIRRGEVPAELRRLAHGGQVNLDMEDHRDEDFVKPKGAFKAFTGEGQKLGSTAPQVLNTSSPAQQAENEAKASSSILINEAEPTTNIQIRLADGGRLVQKFNHSHRISDIRLFIVDARPAMAATSFVLMTTFPNKELADENQTLKEANLLNAVIVQRLT
Work on B8 yielded a sequence count [3] of 14, a sequence coverage [3] of 17.6% and a spectrum count [3] of 15.

B9: endogenous SAKS1 (protein, human, UniProt Q04323 2-297, looked up)
chain: AELTALESLIEMGFPRGRAEKALALTGNQGIEAAMDWLMEHEDDPDVDEPLETPLGHILGREPTSSEQGGLEGSGSAAGEGKPALSEEERQEQTKRMLELVAQKQREREEREEREALERERQRRRQGQELSAARQRLQEDEMRRAAEERRREKAEELAARQRVREKIERDKAERAKKYGGSVGSQPPPVAPEPGPVPSSPSQEPPTKREYDQCRIQVRLPDGTSLTQTFRAREQLAAVRLYVELHRGEELGGGQDPVQLLSGFPRRAFSEADMERPLQELGLVPSAVLIVAKKCPS
B9 was tested, and the sequence count [6] was 2, the sequence coverage [6] was 19.5% and the spectrum count [6] was 2.
